T1: human CDH6 on tumor cells (OVCAR3 cells, PA-1 cells) (human, UniProt P55285 54-790)
T1 sequence: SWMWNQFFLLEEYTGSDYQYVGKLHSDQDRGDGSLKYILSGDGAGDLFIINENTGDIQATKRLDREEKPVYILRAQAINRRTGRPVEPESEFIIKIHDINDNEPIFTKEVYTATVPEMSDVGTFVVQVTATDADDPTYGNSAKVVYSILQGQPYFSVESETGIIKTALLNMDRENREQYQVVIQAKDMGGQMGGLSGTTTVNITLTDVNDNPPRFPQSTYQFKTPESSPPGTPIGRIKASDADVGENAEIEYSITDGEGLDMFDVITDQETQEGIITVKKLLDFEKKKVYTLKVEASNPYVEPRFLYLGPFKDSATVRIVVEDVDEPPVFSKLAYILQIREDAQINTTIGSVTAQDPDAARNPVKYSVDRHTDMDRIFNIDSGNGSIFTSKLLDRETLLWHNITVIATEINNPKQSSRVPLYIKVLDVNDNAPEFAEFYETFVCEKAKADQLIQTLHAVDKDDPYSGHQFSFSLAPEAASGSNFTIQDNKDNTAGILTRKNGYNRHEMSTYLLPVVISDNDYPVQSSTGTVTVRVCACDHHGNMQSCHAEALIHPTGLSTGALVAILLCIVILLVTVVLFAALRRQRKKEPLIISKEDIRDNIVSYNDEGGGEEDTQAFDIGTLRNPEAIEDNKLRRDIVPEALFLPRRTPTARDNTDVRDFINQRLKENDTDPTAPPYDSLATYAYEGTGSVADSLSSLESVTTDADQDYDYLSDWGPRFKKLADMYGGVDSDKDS

T2: monkey CDH6 protein (cynoCDH6 ECD-his) (monkey (cyno), UniProt A0A2K5TW62 19-615)
T2 construct: range 19-615; also called Cyno CDH6-his; not shown: his tag
T2 sequence: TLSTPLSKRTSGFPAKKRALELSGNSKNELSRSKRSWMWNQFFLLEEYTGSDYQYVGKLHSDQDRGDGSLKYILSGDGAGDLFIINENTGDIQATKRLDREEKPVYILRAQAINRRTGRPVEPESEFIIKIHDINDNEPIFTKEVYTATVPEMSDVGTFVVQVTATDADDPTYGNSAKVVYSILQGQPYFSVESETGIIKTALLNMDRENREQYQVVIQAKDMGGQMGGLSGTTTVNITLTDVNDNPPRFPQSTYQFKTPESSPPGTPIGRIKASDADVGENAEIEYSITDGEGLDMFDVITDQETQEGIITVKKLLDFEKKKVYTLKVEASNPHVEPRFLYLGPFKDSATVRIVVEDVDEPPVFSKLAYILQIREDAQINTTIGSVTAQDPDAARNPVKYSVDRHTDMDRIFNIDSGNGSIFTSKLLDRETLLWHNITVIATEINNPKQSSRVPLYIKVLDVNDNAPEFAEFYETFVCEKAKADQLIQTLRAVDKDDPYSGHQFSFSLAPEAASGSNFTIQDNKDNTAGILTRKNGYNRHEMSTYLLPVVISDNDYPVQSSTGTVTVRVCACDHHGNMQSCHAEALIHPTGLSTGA


Tests used:
[1] = molecular target: T1, human CDH6 on tumor cells (OVCAR3 …); experiment: FACS, OVCAR3 cells
Description: (§1) OVCAR3 cells with high expression of CDH6 and PA-1 cells with moderate expression of CDH6 were used to detect the binding activity of the antibodies to the cells. […] The cells were washed once with PBS, counted, resuspended to 2×10⁶ cells/mL in an FACS buffer (PBS+2% FBS), and then added to a 96-well plate at 50 μL/well. The chimeric antibodies were diluted with FACS buffer (PBS+2% FBS) and added to the 96-well plate at 50 μL/well, and the plate was incubated at 4° C. for 1 h. […] The dilution was added to the 96-well plate at 50 μL/well, and the plate was incubated at 4° C. for 1 h. After the plates were centrifuged and washed 2 times with PBS, the cells were resuspended in an FACS buffer. The mean fluorescence intensity (MFI) was measured using FACS Canton II (BD). Analysis was performed by the GraphPad Prism software, data were fitted, and EC50 values were calculated. The chimeric antibodies tested had strong binding to both OVCAR3 cells and PA-1 cells.

[2] = molecular target: T2, monkey CDH6 protein (cynoCDH6 ECD-his); experiment: ELISA, coated antigen
Description: Human CDH6 protein (hCDH6 ECD-his, conventionally synthesized), monkey CDH6 protein (cynoCDH6 ECD-his, conventionally synthesized; the cynoCDH6 ECD sequence was derived from Uniprot #A0A2K5TW62 (19-615)), and murine CDH6 protein (mCDH6 ECD-his, conventionally synthesized; the mCDH6 ECD sequence was derived from Uniprot #P97326 (19-615)) were diluted with PBS to a final concentration of 1 μg/mL, and added to a 96-well ELISA plate at 100 μL/well. The plate was incubated at 4° C. overnight. The next day, the plate was washed 3 times with a plate washing solution (PBS+0.01% (v/v) Tween 20), and a blocking buffer (PBS+0.01% (v/v) Tween 20+2% (w/w) BSA) was added for blocking at room temperature for 2 h. The blocking buffer was discarded, and the plate was washed 3 times. The chimeric antibodies were diluted with 1% BSA+PBS (purchased from Cytiva, Cat. No. SH30264.01) and added to the 96-well plate at 50 μL/well. After incubation at 37° C. for 2 h, the plate was washed 3 times with a plate washing solution. […] The plate was incubated at 37° C. for 1 h and then washed 5 times with a plate washing solution. A TMB substrate (purchased from Seracare, Cat. No. 5120-0077) was added at 50 μL/well and incubated at room temperature for 10 min, then a stop solution (1.0 N HCl) was added at 50 μL/well. OD450 nm values were read using a microplate reader (Biotek). Analysis was performed by the GraphPad Prism software, data were fitted, and EC50 values were calculated. The chimeric antibodies tested all had strong binding to the human CDH6 protein, the monkey CDH6 protein, and the murine CDH6 protein.

[3] = molecular target: T1, human CDH6 on tumor cells (OVCAR3 …); experiment: FACS, PA-1 cells
Description: as §1

| EC50 [1] [nM] | Max MFI [1] [MFI] | EC50 [2] [nM] | Max OD450 [2] [OD450] | EC50 [3] [nM] | Max MFI [3] [MFI] | Binder |
| --- | --- | --- | --- | --- | --- | --- |
| 0.67 | 14800 | 0.03 | 2.24 | 0.43 | 4630 | CHI-CDH6-6 (antibody, human IgG1, kappa, V domains shown, also called CHI-hCDH6-6; chimeric antibody of murine CDH6-6) VH: EVQLQQSGPELVKPGDSVKMSCKASGYTFTDYYMAWVRQSHRKSLEWIGYIFPNSGGTDYSQKFKGKATLTVDKSSSTVYMELHSLTSEDSAVYYCARELGADYGDYYAMDHWGQGTSVSVSS VL: DIQMTQSPASLSASVGETVTITCRASENIDSYLAWYQQKQGKSPQLLVYSATLLADGVPSRFSGSGSGTQYSLKINSLKSEDVARYYCQHYYRTPPTFGSGTKLEIKR |
| 5.57 | 12000 | 0.178 | 2.05 | 7.57 | 2470 | CHI-CDH6-7 (antibody, human IgG1, kappa, V domains shown, also called CH1-CDH6-7; chimeric antibody of murine CDH6-7) VH: EVKLVESGGGLVKPGGSLKVSCAASGFTFSDHGMAWVRQAPGKGPEWVAFISNLAYSIYYADTVTGRFTISRENAKNTLYLEMSSLRSEDTAMYYCARVYVKWYFDVWGAGTTVTVSS VL: DIQMTQSPASLSASVGETVTITCRASENIDSYLAWYQQKQGKSPQLLVFAATLLADGVPSRFSGSGSGTQYSLKINSLQSEDVARYYCQHYYSTPLTFGAGTKLELKR |
| 3.17 | 14000 | 0.034 | 2.23 | 2.48 | 3990 | CHI-CDH6-4 (antibody, human IgG1, kappa, V domains shown, also called CH1-CDH6-4; chimeric antibody of murine CDH6-4) VH: QVQLQQSGPELVKPGASVKISCKASGYAFSNFWMNWVKQRPGKGLEWIGWIYPGDGDTNYNGKFKDKATLTADKSSSTAYIQLSSLTSEDSAVYFCARLYDAWGFFDYWGQGTTLTVSS VL: QIVLTQSPAIMSASPGQKVTITCSASSSVNYMHWYQQKLGSSPKLWIYDKSKLAPGVPARFSGSGSGTSYSLTISSMEAEDAASYFCHQWSSYPPMTFGGGTKLEIKR |
| 0.57 | 12700 | 0.046 | 1.96 | 0.49 | 4560 | CHI-CDH6-5 (antibody, human IgG1, kappa, V domains shown, also called CH1-CDH6-5; chimeric antibody of murine CDH6-5) VH: QVQLQQSGAELVRPGTSVKMSCKAAEYTFTNYWIGWVKQRPGHGLEWIGDLYPGGDHANYNEKFEGKATLTADTSSSTAYMQLSSLTSEDSAIYYCARGMLTTGFDSWGQGTTLTVSS VL: DIVMSQSPSSLAVSAGEKVTMSCKSSQSLFNSRTRKNYLAWYQQKPGQSPKLLIYWASTRESGVPDRFTGSGSGTDFTLTISSVQAEDLAVYYCKQSYYLRTFGGGTKLEIKR |
| 0.13 | 14700 | 0.023 | 2.54 | 0.1 | 4390 | CHI-CDH6-1 (antibody, human IgG1, kappa, V domains shown, also called CHI-hCDH6-1; CH1-CDH6-1) VH: QVQLQQPGAELVRPGSSVKLSCKASGYTFTNYWMHWVKQRPIEGLEWIGDIDPSHSETHYTQKFKDKATLTVDKSSSTAYMQLSSLTSEDSAVYYCARGDLGRFDYWGQGTTLTVSS VL: DIVLTQSPASLAVSLGQRATISCRASESVSIHGTHLMHWYQQKSGQPPKLLIYAASNLESGVPARFSGSGSETDFTFNIHPVEEEDAATYFCQQSFEDPWTFGGGTKLEIKR |
| 0.36 | 15600 | 0.022 | 2.12 | 0.2 | 4760 | CHI-CDH6-2 (antibody, human IgG1, kappa, V domains shown, also called chimeric antibody of murine CDH6-2) VH: EVQLQQSGPELVKPGASVRISCKASGYTFTDYYMNWVKQSHGKSLEWIGDIDPNNANTTYNQKFKGKATLTVDKSSSTAYMELRSLTSEDSAVYSCASFGYDVEWFGYWGQGTLVTVSA VL: QIVLTQSPALMSASPGEKVTMTCSASSSVSYMYWYQQKPRSSPKPWIYLTSNLASGVPARFSGSGSGTSYSLTISSMEAEDAATYYCQQWSSNPFTFGSGTKLEIKR |
| 1.16 | 15500 | 0.041 | 2.64 | 0.13 | 3870 | CHI-CDH6-3 (antibody, human IgG1, kappa, V domains shown, also called CH1-CDH6-3; chimeric antibody of murine CDH6-3) VH: QVQLQQPGAELVKPGASVKLSCKASGYTFTSYWIHWVKQRPGQGLEWIGEINPSNGVTNCNENFKSKATLTVDKSSSTAYMQLSSLTSEDSAVYYCTIPNLLWWYFDVWGAGTTVTVSS VL: DIQMTQSPASLSVSVGETVTITCRASENIYSNLAWYQQKQGKSPQLLVYEATNLADGVPSRFSGSGSGTQYSLKINSLQSEDFGSYYCQHFWGTLWTFGGGTKLEIKR |

— patent US20260234242A1 (HAINAN SIMCERE ZAIMING PHARMACEUTICAL, published 2026)
